What was measured:
mKO-PBP2^S330C = target: T1, mKO-PBP2^S330C (E. coli, UniProt P0AD65 1-633, S330C); assay: FRET or BRET; two-plasmid spectral FRET in E. coli LMC500 cells; mCherry fusion as acceptor, mKO fusion as donor; Gb4 medium, steady state at 28 C, 15 uM IPTG for two mass doublings, FAGA-fixed; acceptor FRET efficiency (EfA) by spectral unmixing; details: partners not purified
T1 construct: made from pWA004 by mutagenesis PCR; source: E. coli LMC500, expressed from plasmid (15 uM IPTG), in fixed cells; not shown: mKO, N-terminal, kept
T1 sequence (looked up): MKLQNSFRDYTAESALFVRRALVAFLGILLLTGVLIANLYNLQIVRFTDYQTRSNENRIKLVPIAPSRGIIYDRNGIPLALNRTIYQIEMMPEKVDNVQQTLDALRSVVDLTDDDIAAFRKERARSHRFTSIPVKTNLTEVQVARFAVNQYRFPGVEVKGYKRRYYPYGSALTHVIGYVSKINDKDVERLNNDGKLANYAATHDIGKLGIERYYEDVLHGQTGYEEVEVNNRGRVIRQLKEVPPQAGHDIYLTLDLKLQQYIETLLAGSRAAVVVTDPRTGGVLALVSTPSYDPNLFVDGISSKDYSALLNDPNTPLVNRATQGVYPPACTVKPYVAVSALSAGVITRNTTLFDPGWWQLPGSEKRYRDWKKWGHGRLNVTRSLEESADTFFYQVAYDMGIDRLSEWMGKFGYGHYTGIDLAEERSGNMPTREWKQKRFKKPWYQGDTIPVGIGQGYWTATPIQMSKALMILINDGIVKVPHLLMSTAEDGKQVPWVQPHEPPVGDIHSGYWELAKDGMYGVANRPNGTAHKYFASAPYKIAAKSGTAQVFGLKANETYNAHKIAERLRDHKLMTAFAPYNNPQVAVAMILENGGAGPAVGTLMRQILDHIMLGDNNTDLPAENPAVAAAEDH

[1] = target: the molecule itself; assay: as above

B1: RodA (wild type), fused to mCherry or to mKO (enzyme, E. coli, UniProt P0ABG7 1-370, looked up)
chain: MTDNPNKKTFWDKVHLDPTMLLILLALLVYSALVIWSASGQDIGMMERKIGQIAMGLVIMVVMAQIPPRVYEGWAPYLYIICIILLVAVDAFGAISKGAQRWLDLGIVRFQPSEIAKIAVPLMVARFINRDVCPPSLKNTGIALVLIFMPTLLVAAQPDLGTSILVALSGLFVLFLSGLSWRLIGVAVVLVAAFIPILWFFLMHDYQRQRVMMLLDPESDPLGAGYHIIQSKIAIGSGGLRGKGWLHGTQSQLEFLPERHTDFIFAVLAEELGLVGILILLALYILLIMRGLWIAARAQTTFGRVMAGGLMLILFVYVFVNIGMVSGILPVVGVPLPLVSYGGSALIVLMAGFGIVMSIHTHRKMLSKSV
notes: RodA, peptidoglycan glycosyltransferase of the E. coli elongasome; wild-type rodA gene; mCh-RodA in all others; also called mCh-RodA; mKO-RodA; source: E. coli LMC500, expressed from plasmid (15 uM IPTG), in fixed cells; not shown: mCherry (acceptor construct, pSAV047-RodA) or mKO (donor construct, pXL56), N-terminal, kept
mKO-PBP2^S330C
  EfA (acceptor FRET efficiency): 10.2%
[1]
  EfA (acceptor FRET efficiency): 5.5%
